The target in assay [1] is Thermodesulfatator indicus HARP, recombinant (Thermodesulfatator indicus). Nature of the assay: mass photometry.
For assay [2] the target is unchanged. Nature of the assay: SEC.

Where “and” joins values, the source holds several entries; their conditions need not be identical. Equal values may be shown once.

As to “Thermodesulfatator indicus HARP, recombinant (enzyme)”, the stoichiometry N in assay [1] was 2 and 4; in assay [2], less than 12.

Values taken from article PMC9945441.
